# Measured values from PMC12186524.
# Columns and labels:
# [1] = molecular target: ArbB2 Met160Ala (Coffea arabica)
# [2] = molecular target: ArbB2 Pro242Ala (Coffea arabica)
binder,measurement,setting,value
GNTLKDFESKPGSFLWGYQG [ArbA2_(58–77) (ArbA2-FLWGY)],loss of activity (relative conversion of ArbA2-FLWGY to product) against ArbB2 (% loss of activity),[1],60
same,loss of activity (relative conversion of ArbA2-FLWGY to product) against ArbB2 (% loss of activity),[2],90
